The target of the test is cholesterol ester hydrolase (CEH).

Square brackets hold non-standard residues; d marks the D form. Ends that are not written are not given here.

[dR][dF][dH][dN][dP][dD][dK]G[dS][dR]G[dW][dE][dN][dA][dA][dQ][dD][dA] (also: retro-inverso peptide) [retro-inversal D amino acid peptide … (D-form; SEQ ID NO:3)] gave an in vivo macrophage cholesterol export ([3H]-cholesterol in plasma 5 hours after peptide injection) of 2.5 fold.

For the origin of these results see patent US20100272817A1.
